One experiment addresses T1, mouse CD153 (mouse, UniProt P32972 1-239).
T1 construct: whole, on cells; also called mCD153
T1 sequence (looked up): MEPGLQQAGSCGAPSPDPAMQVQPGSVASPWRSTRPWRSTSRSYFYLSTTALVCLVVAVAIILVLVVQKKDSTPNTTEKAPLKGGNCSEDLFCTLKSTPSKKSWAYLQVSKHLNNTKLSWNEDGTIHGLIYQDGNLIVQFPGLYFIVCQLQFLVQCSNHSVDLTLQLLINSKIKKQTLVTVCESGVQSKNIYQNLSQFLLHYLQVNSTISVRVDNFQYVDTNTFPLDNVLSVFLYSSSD
Briefly: flow cytometry on EL4 cells stably expressing mouse CD153.

The next experiment addresses T2, human CD153 (human, UniProt P32971 1-234).
T2 construct: whole, on cells; also called hCD153; CD30L
T2 sequence (looked up): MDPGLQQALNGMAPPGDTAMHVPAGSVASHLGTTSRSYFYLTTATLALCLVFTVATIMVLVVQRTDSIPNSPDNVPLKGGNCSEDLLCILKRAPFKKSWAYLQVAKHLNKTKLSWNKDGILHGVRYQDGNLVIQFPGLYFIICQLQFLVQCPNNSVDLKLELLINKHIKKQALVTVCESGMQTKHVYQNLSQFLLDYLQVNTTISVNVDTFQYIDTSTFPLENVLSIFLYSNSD
Briefly: flow cytometry, hybridoma supernatant on 293H cells expressing hCD153. (In general: In flow cytometry, cells or beads pass a laser one at a time.)

B1: anti-human CD153 monoclonal antibody 2H7-9 (antibody, V domains shown)
VH: RVQLQQSGAELVRPGTSVKISCKASGYAFTNYWLGWVKQRPGHGLEWIGDIYPGNYNSYSNEKFKGKATLTADESSSTAYMQLSSLTSEDSAVYFCARIYGNYWIFDVWGAGTTVTVSS
VL: QIVLTQSPAIMSASPGEKVTMTCSASSSVNYMHWFQQKPGTSPKLWIYSTSDLASGVPARFSGSGSGTSYSLTISRMEAEDAATYYCQQRSSYPLTFGAGTKLELK
notes: Mouse hybridoma antibody (CD153-KO B6 mouse), purified with Protein A and detected with anti-mouse IgG
Consider B1, for which the binding result is on record as “no binding (tested: 160 µg/ml to 0.00977 µg/ml)” with mouse CD153 and “binds” with human CD153.
